Test results from PMC3898117 (Biochemical Journal, 2013).

Biological target: recombinant RNMT (RNA guanine-7 methyltransferase) (UniProt O43148 1-476)
Test: cell-based or functional assay

Chain of recombinant RNMT (RNA guanine-7 methyltransferase) (O43148 whole entry): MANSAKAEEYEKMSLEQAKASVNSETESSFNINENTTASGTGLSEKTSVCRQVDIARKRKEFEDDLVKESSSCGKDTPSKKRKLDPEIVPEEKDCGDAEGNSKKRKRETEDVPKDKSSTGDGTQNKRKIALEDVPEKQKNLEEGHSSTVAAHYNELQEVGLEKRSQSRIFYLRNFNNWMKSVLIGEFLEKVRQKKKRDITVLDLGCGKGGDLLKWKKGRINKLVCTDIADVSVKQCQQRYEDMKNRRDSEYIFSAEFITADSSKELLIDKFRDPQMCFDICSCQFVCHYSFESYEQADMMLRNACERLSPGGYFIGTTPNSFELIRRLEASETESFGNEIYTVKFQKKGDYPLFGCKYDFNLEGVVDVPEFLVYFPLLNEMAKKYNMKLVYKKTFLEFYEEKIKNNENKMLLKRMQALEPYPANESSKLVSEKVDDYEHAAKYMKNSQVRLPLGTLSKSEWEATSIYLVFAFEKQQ

in vitro cap methyltransferase activity of 15 nM RNMT pre-incubated with 15 nM GST–RAM 1–55, compared with GST control: > 5 fold
B1: GST–RAM 1–55 (domain or fragment, human, UniProt Q9BTL3 1-55, looked up)
chain: MTDTAEAVPKFEEMFASRFTENDKEYQEYLKRPPESPPIVEEWNSRAGGNQRNRG
